The results in this text go back to patent EP1947117A2.

Assay [1] has as its target porcine TSH receptor (solubilized porcine thyroid membranes) (porcine) (UniProt Q8SPP9). Description: competitive displacement of 125I-bTSH from solubilized porcine thyroid membranes.
Assay [2] addresses hCG receptor on MA-10 cells (transformed murine Leydig cells) (murine) (UniProt P30730). Description: cell-based or functional assay.
Assay [3] shares this target. The assay can be described thus: 125I-hCG receptor binding assay on MA-10 cells (Fig. 3b).
Assay [4] concerns the target human TSH receptor on CHO cells (CHO-hTSHR clone JP09) (human) (UniProt P16473). The assay can be described thus: cell-based or functional assay.
Assay [5] has as its target rat TSH receptor on FRTL-5 cells (rat) (UniProt P21463). The assay can be described thus: cell-based or functional assay.
Assay [6] addresses porcine TSH receptor (solubilized porcine thyroid membranes) (porcine) (UniProt Q8SPP9). Description: competitive binding assay to porcine thyroid membranes.

Sequence of hCG receptor on MA-10 cells (transformed murine Leydig cells) (murine) (P30730 27-700): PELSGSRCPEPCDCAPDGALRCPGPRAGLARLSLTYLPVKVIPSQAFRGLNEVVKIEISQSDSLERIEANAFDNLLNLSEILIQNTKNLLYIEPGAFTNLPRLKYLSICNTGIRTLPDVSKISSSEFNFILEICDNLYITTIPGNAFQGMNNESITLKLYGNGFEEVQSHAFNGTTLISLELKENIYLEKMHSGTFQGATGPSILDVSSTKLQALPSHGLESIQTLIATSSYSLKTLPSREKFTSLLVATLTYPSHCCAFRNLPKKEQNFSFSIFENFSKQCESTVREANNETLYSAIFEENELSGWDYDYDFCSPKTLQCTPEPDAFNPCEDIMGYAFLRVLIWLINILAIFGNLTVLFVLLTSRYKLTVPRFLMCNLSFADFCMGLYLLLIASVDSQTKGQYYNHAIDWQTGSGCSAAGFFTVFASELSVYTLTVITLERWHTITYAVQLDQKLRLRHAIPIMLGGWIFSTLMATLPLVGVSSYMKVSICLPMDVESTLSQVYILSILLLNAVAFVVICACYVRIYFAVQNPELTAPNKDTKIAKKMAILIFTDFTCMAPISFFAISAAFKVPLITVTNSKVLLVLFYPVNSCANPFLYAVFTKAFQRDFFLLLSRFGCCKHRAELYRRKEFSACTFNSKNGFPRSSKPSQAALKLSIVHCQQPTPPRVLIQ
Sequence of rat TSH receptor on FRTL-5 cells (rat) (P21463 22-764): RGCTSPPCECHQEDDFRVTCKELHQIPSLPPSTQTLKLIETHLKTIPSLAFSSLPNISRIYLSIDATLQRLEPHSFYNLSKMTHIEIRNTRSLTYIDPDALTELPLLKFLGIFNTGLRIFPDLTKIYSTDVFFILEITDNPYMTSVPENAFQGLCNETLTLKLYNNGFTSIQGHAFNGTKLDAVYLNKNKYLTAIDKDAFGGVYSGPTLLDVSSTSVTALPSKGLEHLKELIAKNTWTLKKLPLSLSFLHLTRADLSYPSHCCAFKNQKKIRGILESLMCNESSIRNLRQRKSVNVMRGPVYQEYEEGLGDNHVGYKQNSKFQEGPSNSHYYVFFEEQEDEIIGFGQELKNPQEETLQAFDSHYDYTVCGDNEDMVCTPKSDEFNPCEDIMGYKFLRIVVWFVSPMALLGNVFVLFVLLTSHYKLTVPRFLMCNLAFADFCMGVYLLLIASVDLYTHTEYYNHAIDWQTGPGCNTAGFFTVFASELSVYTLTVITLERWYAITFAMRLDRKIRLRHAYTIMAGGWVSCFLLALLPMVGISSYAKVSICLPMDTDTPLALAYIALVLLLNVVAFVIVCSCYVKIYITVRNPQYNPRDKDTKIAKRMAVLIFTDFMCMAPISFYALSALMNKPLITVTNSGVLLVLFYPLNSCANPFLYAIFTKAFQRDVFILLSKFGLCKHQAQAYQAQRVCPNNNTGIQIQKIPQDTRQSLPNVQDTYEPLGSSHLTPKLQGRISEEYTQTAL
Sequence of porcine TSH receptor (solubilized porcine thyroid membranes) (porcine) (Q8SPP9 22-764): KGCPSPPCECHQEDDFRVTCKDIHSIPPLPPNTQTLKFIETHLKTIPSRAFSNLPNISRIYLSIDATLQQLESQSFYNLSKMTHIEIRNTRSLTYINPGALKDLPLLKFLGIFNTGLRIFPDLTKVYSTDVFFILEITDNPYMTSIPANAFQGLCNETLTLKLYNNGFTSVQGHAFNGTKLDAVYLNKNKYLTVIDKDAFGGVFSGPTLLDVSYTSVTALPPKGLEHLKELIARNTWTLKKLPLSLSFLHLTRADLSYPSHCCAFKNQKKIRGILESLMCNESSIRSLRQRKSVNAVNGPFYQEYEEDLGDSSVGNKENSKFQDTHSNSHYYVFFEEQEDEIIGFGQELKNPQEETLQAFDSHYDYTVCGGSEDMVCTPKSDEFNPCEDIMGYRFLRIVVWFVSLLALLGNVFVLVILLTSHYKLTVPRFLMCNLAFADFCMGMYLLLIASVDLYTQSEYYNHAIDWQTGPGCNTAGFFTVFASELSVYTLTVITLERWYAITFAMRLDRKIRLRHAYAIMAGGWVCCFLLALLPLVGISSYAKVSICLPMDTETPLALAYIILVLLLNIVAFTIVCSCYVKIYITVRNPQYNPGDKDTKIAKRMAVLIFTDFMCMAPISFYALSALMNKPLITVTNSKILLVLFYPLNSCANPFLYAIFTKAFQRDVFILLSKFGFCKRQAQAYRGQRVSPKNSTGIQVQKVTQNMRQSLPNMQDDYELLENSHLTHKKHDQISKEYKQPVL

In assay [1], “WT-hTSH (wild-type recombinant human thyroid stimulating hormone) (from UniProt P01215 25-116; P01222 21-132) (ligand)” registered an EC25 of inhibition of 125I-bTSH binding of 81.3 ng/mL.
“hCG mutant α-P16K / WT-hCGβ (from UniProt P01215 25-116; P0DN86 21-165) (ligand)”: in assay [2], the Progesterone synthesis in MA 10 cells, EC50 turned out to be 2.05 ng/mL; the Progesterone synthesis in MA 10 cells, Max was 161%; the stimulation of progesterone production in MA-10 cells, fold more active than WT-hCG is 4 fold. In addition, in assay [3], the fold more active than WT-hCG in receptor binding activity worked out at 4 fold.
Turning to “hCG mutant α-P16K+Q20K / WT-hCGβ (from UniProt P01215 25-116; P0DN86 21-165) (ligand)”, in assay [2], the Progesterone synthesis in MA 10 cells, EC50 worked out at 1.7 ng/mL and the Progesterone synthesis in MA 10 cells, Max is 212%.
In assay [2], “hCG mutant α-Q13K / WT-hCGβ (from UniProt P01215 25-116; P0DN86 21-165) (ligand)” gave a Progesterone synthesis in MA 10 cells, EC50 of 2.46 ng/mL and a Progesterone synthesis in MA 10 cells, Max of 115%.
The corresponding values for “hCG mutant α-Q13K+P16K+Q20K / WT-hCGβ (from UniProt P01215 25-116; P0DN86 21-165) (ligand)” are 1.58 ng/mL and 216%.
Taken in the same sequence, the figures for “hCG mutant α-Q13K+P16K+Q20K+E14K / WT-hCGβ (from UniProt P01215 25-116; P0DN86 21-165) (ligand)” were 1.65 ng/mL and 205%.
In assay [2], “hCG mutant α-Q20K / WT-hCGβ (from UniProt P01215 25-116; P0DN86 21-165) (ligand)” registered a Progesterone synthesis in MA 10 cells, EC50 of 2.96 ng/mL and a Progesterone synthesis in MA 10 cells, Max of 134%.
Taken in the same sequence, the figures for “hCG mutant α-Q50P / WT-hCGβ (from UniProt P01215 25-116; P0DN86 21-165) (ligand)” were 3.9 ng/mL and 137%.
On to “hCG mutant α-R67K / WT-hCGβ (from UniProt P01215 25-116; P0DN86 21-165) (ligand)”, for which, in assay [2], the Progesterone synthesis in MA 10 cells, EC50 is 4.6 ng/mL and the Progesterone synthesis in MA 10 cells, Max was 145%.
“hCG mutant α-T11K / WT-hCGβ (from UniProt P01215 25-116; P0DN86 21-165) (ligand)”: in assay [2], the Progesterone synthesis in MA 10 cells, EC50 turned out to be 2.79 ng/mL and the Progesterone synthesis in MA 10 cells, Max was found to be 156%.
With “hTSH mutant WT α / TSHβ-L69R (from UniProt P01215 25-116; P01222 21-132) (ligand)”, in assay [4], the cAMP stimulation in JP09 cells, EC50 worked out at 2.75 ng/mL and the cAMP stimulation in JP09 cells, relative potency (WT=1) is 2.4 fold (WT=1).
On to “hTSH mutant WT α / hTSHβ-E63R (from UniProt P01215 25-116; P01222 21-132) (ligand)”, for which the potency, fold increase over hTSH in assay [4] and in assay [5] was 2 to 4 fold each time.
For “hTSH mutant WT α / hTSHβ-I58R (from UniProt P01215 25-116; P01222 21-132) (ligand)”, the potency, fold increase over hTSH in assay [4] and in assay [5] was 2 to 4 fold each time.
Take “hTSH mutant WT α / hTSHβ-I58R+E63R (from UniProt P01215 25-116; P01222 21-132) (ligand)”: in assay [4], the efficacy of cAMP stimulation in CHO-hTSH cells (Fig. 2g), fold increase is 1.5 fold and the potency of cAMP stimulation in CHO-hTSH cells (Fig. 2g), fold over wild type hTSH came to 15 fold.
As to “hTSH mutant WT α / hTSHβ-I58R+E63R+L69R (from UniProt P01215 25-116; P01222 21-132) (ligand)”, in assay [4], the efficacy of cAMP stimulation in CHO-hTSH cells (Fig. 2g), fold increase turned out to be 1.7 fold and the potency of cAMP stimulation in CHO-hTSH cells (Fig. 2g), fold increase came out at 50 fold.
Consider “hTSH mutant α-P16K / WT-hTSHβ (from UniProt P01215 25-116; P01222 21-132) (ligand)”, for which, in assay [4], the cAMP stimulation in JP09 cells, EC50 amounted to 1.05 ng/mL and the cAMP stimulation in JP09 cells, relative potency (WT=1) is 6.4 fold (WT=1). This substance also gave a fold greater affinity than WT in assay [6] of 5 fold. In assay [1], this substance yielded an EC25 of inhibition of 125I-bTSH binding of 189 ng/mL.
For “hTSH mutant α-P16K+F17T / WT-hTSHβ (from UniProt P01215 25-116; P01222 21-132) (ligand)”, in assay [4], the cAMP stimulation in JP09 cells, EC50 stood at 3.52 ng/mL and the cAMP stimulation in JP09 cells, relative potency (WT=1) was 1.9 fold (WT=1).
In the case of “hTSH mutant α-P16K+Q20K / WT-hTSHβ (from UniProt P01215 25-116; P01222 21-132) (ligand)”, in assay [4], the cAMP stimulation in JP09 cells, EC50 stood at 0.37 ng/mL and the cAMP stimulation in JP09 cells, relative potency (WT=1) was 11.8 fold (WT=1). Moreover, the EC25 of inhibition of 125I-bTSH binding in assay [1] was 6.4 ng/mL.
Taken in the same sequence, the figures for “hTSH mutant α-Q13K / WT-hTSHβ (from UniProt P01215 25-116; P01222 21-132) (ligand)” were 1.89 ng/mL, 3.5 fold (WT=1) and 22.5 ng/mL.
As to “hTSH mutant α-Q13K+P16K+Q20K / TSHβ-L69R (from UniProt P01215 25-116; P01222 21-132) (ligand)”, in assay [4], the cAMP stimulation in JP09 cells, EC50 stood at 0.19 ng/mL and the cAMP stimulation in JP09 cells, relative potency (WT=1) was 35.3 fold (WT=1). In addition, the half-maximal stimulation of 3H-thymidine incorporation in FRTL-5 cells, fold lower concentration than WT-hTSH in assay [5] came to 27 fold. Also, in assay [1], the EC25 of inhibition of 125I-bTSH binding was determined as 1.8 ng/mL.
Regarding “hTSH mutant α-Q13K+P16K+Q20K / WT-hTSHβ (from UniProt P01215 25-116; P01222 21-132) (ligand)”, in assay [4], the cAMP stimulation in JP09 cells, EC50 was found to be 0.28 ng/mL and the cAMP stimulation in JP09 cells, relative potency (WT=1) is 23.9 fold (WT=1). The same substance had a half-maximal stimulation of 3H-thymidine incorporation in FRTL-5 cells, fold lower concentration than WT-hTSH in assay [5] of 18 fold. Moreover, the EC25 of inhibition of 125I-bTSH binding in assay [1] turned out to be 2.3 ng/mL.
“hTSH mutant α-Q13K+P16K+Q20K+E14K / TSHβ-L69R (from UniProt P01215 25-116; P01222 21-132) (ligand)”: in assay [4], the cAMP stimulation in JP09 cells, EC50 came to 0.07 ng/mL; the cAMP stimulation in JP09 cells, relative potency (WT=1) is 95.7 fold (WT=1); the efficacy (maximal response) of cAMP stimulation, fold over WT-hTSH was more than 1.5 fold. The substance further yielded an EC25 of inhibition of 125I-bTSH binding in assay [1] of 1.3 ng/mL.
Taken in the same sequence, the figures for “hTSH mutant α-Q13K+P16K+Q20K+E14K / WT-hTSHβ (from UniProt P01215 25-116; P01222 21-132) (ligand)” were 0.17 ng/mL, 39.4 fold (WT=1), more than 1.5 fold and 2.1 ng/mL.
As for “hTSH mutant α-Q20K / WT-hTSHβ (from UniProt P01215 25-116; P01222 21-132) (ligand)”, in assay [4], the cAMP stimulation in JP09 cells, EC50 stood at 1.16 ng/mL and the cAMP stimulation in JP09 cells, relative potency (WT=1) was 5.8 fold (WT=1). The EC25 of inhibition of 125I-bTSH binding in assay [1] was 21.3 ng/mL.
On to “hTSH mutant α-Q50P / WT-hTSHβ (from UniProt P01215 25-116; P01222 21-132) (ligand)”, for which, in assay [4], the cAMP stimulation in JP09 cells, EC50 stood at 5.54 ng/mL and the cAMP stimulation in JP09 cells, relative potency (WT=1) was 1.2 fold (WT=1). The same substance returned an EC25 of inhibition of 125I-bTSH binding in assay [1] of 77.5 ng/mL.
Taken in the same sequence, the figures for “hTSH mutant α-R67K / WT-hTSHβ (from UniProt P01215 25-116; P01222 21-132) (ligand)” were 7.36 ng/mL, 0.9 fold (WT=1) and 62.5 ng/mL.
Consider “hTSH mutant α-T11K / WT-hTSHβ (from UniProt P01215 25-116; P01222 21-132) (ligand)”, for which, in assay [4], the cAMP stimulation in JP09 cells, EC50 is 4.47 ng/mL and the cAMP stimulation in JP09 cells, relative potency (WT=1) is 1.5 fold (WT=1). The substance further came in with an EC25 of inhibition of 125I-bTSH binding in assay [1] of 68.3 ng/mL.
